The values that follow come from publication PMC6393309 (Nucleic Acids Research, 2019).

The test system of test [1] is GB2005 E. coli cells. The test can be described thus: dsDNA recombination assay. The format is cell-based. Particulars: % of WT colonies per 10^8 viable cells.
Test [2] relates to GB2005 E. coli cells. The test can be described thus: ssDNA recombination assay. The format is cell-based. Particulars: % of WT colonies per 10^8 viable cells.

B1: F249A Redβ: Redβ variant (protein)
chain: MSTALATLAGKLAERVGMDSVDPQELITTLRQTAFKGDASDAQFIALLIVANQYGLNPWTKEIYAFPDKQNGIVPVVGVDGWSRIINENQQFDGMDFEQDNESCTCRIYRKDRNHPICVTEWMDECRREPFKTREGREITGPWQSHPKRMLRHKAMIQCARLAFGFAGIYDKDEAERIVENTAYTAERQPERDITPVNDETMQEINTLLIALDKTWDDDLLPLCSQIFRRDIRASSELTQAEAVKALGALKQKAAEQKVAA
Take B1: the “DS (%): dsDNA recombination compared to WT” value (shortened to “DS (%): dsDNA recombination”) with GB2005 E. coli cells [1] is 0.21%; in the test with GB2005 E. coli cells [1] (listed as F249A), 0–0.7%. Further, the “SS (%): ssDNA recombination compared to WT” value (shortened to “SS (%): ssDNA recombination”) in the test with GB2005 E. coli cells [2] came to 0.73%.

B2: R229A Redβ: Redβ variant (protein)
chain: MSTALATLAGKLAERVGMDSVDPQELITTLRQTAFKGDASDAQFIALLIVANQYGLNPWTKEIYAFPDKQNGIVPVVGVDGWSRIINENQQFDGMDFEQDNESCTCRIYRKDRNHPICVTEWMDECRREPFKTREGREITGPWQSHPKRMLRHKAMIQCARLAFGFAGIYDKDEAERIVENTAYTAERQPERDITPVNDETMQEINTLLIALDKTWDDDLLPLCSQIFARDIRASSELTQAEAVKALGFLKQKAAEQKVAA
On to B2, for which the “DS (%): dsDNA recombination” value in the test on GB2005 E. coli cells [1] was 71%; in the test with GB2005 E. coli cells [1] (listed as R229A) it was 55–106%. Besides, the results for the “SS (%): ssDNA recombination” value in the test on GB2005 E. coli cells [2] and with GB2005 E. coli cells [2] (listed as R229A) were 58% and 13 to 101%, respectively.

B3: L223D Redβ: Redβ variant (protein)
chain: MSTALATLAGKLAERVGMDSVDPQELITTLRQTAFKGDASDAQFIALLIVANQYGLNPWTKEIYAFPDKQNGIVPVVGVDGWSRIINENQQFDGMDFEQDNESCTCRIYRKDRNHPICVTEWMDECRREPFKTREGREITGPWQSHPKRMLRHKAMIQCARLAFGFAGIYDKDEAERIVENTAYTAERQPERDITPVNDETMQEINTLLIALDKTWDDDLLPDCSQIFRRDIRASSELTQAEAVKALGFLKQKAAEQKVAA
For B3, the results for the “DS (%): dsDNA recombination” value in the test with GB2005 E. coli cells [1] and in the test on GB2005 E. coli cells [1] (listed as L223D) were 0.11% and 0–0.7%, respectively. Also, in the test with GB2005 E. coli cells [2], the “SS (%): ssDNA recombination” value came to 0.68%.

B4: Q226A Redβ: Redβ variant (protein)
chain: MSTALATLAGKLAERVGMDSVDPQELITTLRQTAFKGDASDAQFIALLIVANQYGLNPWTKEIYAFPDKQNGIVPVVGVDGWSRIINENQQFDGMDFEQDNESCTCRIYRKDRNHPICVTEWMDECRREPFKTREGREITGPWQSHPKRMLRHKAMIQCARLAFGFAGIYDKDEAERIVENTAYTAERQPERDITPVNDETMQEINTLLIALDKTWDDDLLPLCSAIFRRDIRASSELTQAEAVKALGFLKQKAAEQKVAA
On to B4, for which the “DS (%): dsDNA recombination” value in the test with GB2005 E. coli cells [1] is recorded as 106%; in the test on GB2005 E. coli cells [1] (listed as Q226A), 55–106%. The “SS (%): ssDNA recombination” value in the test on GB2005 E. coli cells [2] (listed as Q226A) is on record as 13 to 101%.

B5: L223A Redβ: Redβ variant (protein)
chain: MSTALATLAGKLAERVGMDSVDPQELITTLRQTAFKGDASDAQFIALLIVANQYGLNPWTKEIYAFPDKQNGIVPVVGVDGWSRIINENQQFDGMDFEQDNESCTCRIYRKDRNHPICVTEWMDECRREPFKTREGREITGPWQSHPKRMLRHKAMIQCARLAFGFAGIYDKDEAERIVENTAYTAERQPERDITPVNDETMQEINTLLIALDKTWDDDLLPACSQIFRRDIRASSELTQAEAVKALGFLKQKAAEQKVAA
On to B5, for which the “DS (%): dsDNA recombination” value in the test on GB2005 E. coli cells [1] is on record as 0.72%; in the test on GB2005 E. coli cells [1] (listed as L223A), 0–0.7%. Also, the “SS (%): ssDNA recombination” value with GB2005 E. coli cells [2] is 3.5%.

B6: K253A Redβ (protein)
chain: MSTALATLAGKLAERVGMDSVDPQELITTLRQTAFKGDASDAQFIALLIVANQYGLNPWTKEIYAFPDKQNGIVPVVGVDGWSRIINENQQFDGMDFEQDNESCTCRIYRKDRNHPICVTEWMDECRREPFKTREGREITGPWQSHPKRMLRHKAMIQCARLAFGFAGIYDKDEAERIVENTAYTAERQPERDITPVNDETMQEINTLLIALDKTWDDDLLPLCSQIFRRDIRASSELTQAEAVKALGFLKQAAAEQKVAA
In the case of B6, the “DS (%): dsDNA recombination” value with GB2005 E. coli cells [1] turned out to be 0.20%. The “SS (%): ssDNA recombination” value in the test on GB2005 E. coli cells [2] is 2.5%.

B7: F249D Redβ (protein)
chain: MSTALATLAGKLAERVGMDSVDPQELITTLRQTAFKGDASDAQFIALLIVANQYGLNPWTKEIYAFPDKQNGIVPVVGVDGWSRIINENQQFDGMDFEQDNESCTCRIYRKDRNHPICVTEWMDECRREPFKTREGREITGPWQSHPKRMLRHKAMIQCARLAFGFAGIYDKDEAERIVENTAYTAERQPERDITPVNDETMQEINTLLIALDKTWDDDLLPLCSQIFRRDIRASSELTQAEAVKALGDLKQKAAEQKVAA
Consider B7, for which, in the test with GB2005 E. coli cells [1], the “DS (%): dsDNA recombination” value turned out to be 0%. In addition, in the test with GB2005 E. coli cells [2], the “SS (%): ssDNA recombination” value came out at 0.41%.

B8: F94E λexo: λ Exo variant (protein)
chain: MTPDIILQRTGIDVRAVEQGDDAWHKLRLGVITASEVHNVIAKPRSGKKWPDMKMSYFHTLLAEVCTGVAPEVNAKALAWGKQYENDARTLFEETSGVNVTESPIIYRDESMRTACSPDGLCSDGNGLELKCPFTSRDFMKFRLGGFEAIKSAYMAQVQYSMWVTRKNAWYFANYDPRMKREGLHYVVIERDEKYMASFDEIVPEFIEKMDEALAEIGFVFGEQWR
modifications: left off: His6, N-terminal, kept
As to B8, the “DS (%): dsDNA recombination” value in the test with GB2005 E. coli cells [1] is recorded as 0.68%; with GB2005 E. coli cells [1] (listed as F94E), 0.6–3%. The “SS (%): ssDNA recombination” value with GB2005 E. coli cells [2] is given as 177%.

B9: L91A λexo (protein)
chain: MTPDIILQRTGIDVRAVEQGDDAWHKLRLGVITASEVHNVIAKPRSGKKWPDMKMSYFHTLLAEVCTGVAPEVNAKALAWGKQYENDARTAFEFTSGVNVTESPIIYRDESMRTACSPDGLCSDGNGLELKCPFTSRDFMKFRLGGFEAIKSAYMAQVQYSMWVTRKNAWYFANYDPRMKREGLHYVVIERDEKYMASFDEIVPEFIEKMDEALAEIGFVFGEQWR
modifications: left off: His6, N-terminal, kept
Regarding B9, the “DS (%): dsDNA recombination” value in the test on GB2005 E. coli cells [1] amounted to 0.63%. In addition, in the test with GB2005 E. coli cells [2], the “SS (%): ssDNA recombination” value was determined as 103%.

B10: D87A λexo (protein)
chain: MTPDIILQRTGIDVRAVEQGDDAWHKLRLGVITASEVHNVIAKPRSGKKWPDMKMSYFHTLLAEVCTGVAPEVNAKALAWGKQYENAARTLFEFTSGVNVTESPIIYRDESMRTACSPDGLCSDGNGLELKCPFTSRDFMKFRLGGFEAIKSAYMAQVQYSMWVTRKNAWYFANYDPRMKREGLHYVVIERDEKYMASFDEIVPEFIEKMDEALAEIGFVFGEQWR
modifications: left off: His6, N-terminal, kept
B10: the “DS (%): dsDNA recombination” value is recorded as 55% in the test with GB2005 E. coli cells [1] and 55–106% with GB2005 E. coli cells [1] (listed as D87A). Further, the “SS (%): ssDNA recombination” value with GB2005 E. coli cells [2] is on record as 179%.

B11: L91D λexo (protein)
chain: MTPDIILQRTGIDVRAVEQGDDAWHKLRLGVITASEVHNVIAKPRSGKKWPDMKMSYFHTLLAEVCTGVAPEVNAKALAWGKQYENDARTDFEFTSGVNVTESPIIYRDESMRTACSPDGLCSDGNGLELKCPFTSRDFMKFRLGGFEAIKSAYMAQVQYSMWVTRKNAWYFANYDPRMKREGLHYVVIERDEKYMASFDEIVPEFIEKMDEALAEIGFVFGEQWR
modifications: left off: His6, N-terminal, kept
On to B11, for which the “DS (%): dsDNA recombination” value in the test with GB2005 E. coli cells [1] is on record as 3.1%. Also, the “SS (%): ssDNA recombination” value with GB2005 E. coli cells [2] is 110%.
